From article PMC3613695 (The Journal of Cell Biology, 2013)

B1: Bls1 (BLOC-1 subunit), overexpressed (natural protein, yeast, UniProt Q06071 1-122, looked up)
chain: MFLTFSMCVNWIIVKMPNRSEELDRLLDKIINSPHRTEASKTLQEIENNQSYILNVQLKKLLRLHDDSFKNKCVSPINYMLEKYTPYMGHTEALQKEAELVDRDLRILEMTYQLIEKNRNSK
B2: Kxd1 (BLOC-1 subunit), overexpressed (natural protein, yeast, UniProt P53158 1-218, looked up)
chain: MVTGISEENDDEETFSAVHSSTPSINSQSYAIPITEEMSSSFHDSISTTSNSSGSFDSDGSNVSDVVEQNEMDNESNVDEDLFLDNDIPQSSNLLPTDAQDPGPIFDVSRYIFDSLKQSIDSADFSEALSLQTKTSAVINSKSLELKQYIDEMKSRLTQLQEKFENGEATSKKIKRDLETSRKNIDYLNAALRVDFPIEFNQAREKILERRLNEDHDC
B3: Bli1 (BLOC-1 subunit), overexpressed (natural protein, yeast, UniProt P35727 1-113, looked up)
chain: MGEQNKLYYDVEKLVNSLQESFDLDCAQSVSLFTSKSRSNEAWLEELENKFKLKDDVELDDVENLRAEIDMKLNMLEDKVSYYERLYKELEEFQNEIKIKTVVNNRRQSRTPK
B4: Cnl1 (BLOC-1 subunit), overexpressed (natural protein, yeast, UniProt Q06333 1-122, looked up)
chain: MQDNSSHSRESASAGDDPLGIDKLTVDYDYLLYKMRDYVQSIQLDTTELCKKQNEVMVNGIIENTIDKNIAKFKELLEKCDTLENHYEMLNQLAIITDTFKERIAEAVNNYNSLKKGASKSK
B5: Vab2 with C-terminal TAP tag (natural protein)
chain: MVADLTKGILKWKSRIEFDAVGSSSYYEELKGLPPLASHKKLTQAAIFNSTKYELLQVKKDILSIYEVVSRDIDEERNQMQQIELQLKKSLKKVEHSYKNVLKQRASTNCINGNDRLLANAEKKIGSLNEELACVNDIVSDIVNNLTALNANLPKKAQLLKDDSINVAHYPLLFDFLHKSCPKSIIATSEASIHENASPSPLLEHDELPAESINSFYGENELQSDSLAPLQTHDDNISSCKKILPPKFNTTSGPSIETNFENISADGLTYTKCSLKNSISLT

Legend:
[1] = target: B5; test: affinity purification with mass spectrometry
[2] = target: B5; test: SEC
[3] = target: Snn1 (BLOC-1 subunit), overexpressed (yeast, UniProt P48232 1-102); test: affinity purification with mass spectrometry

Row | Binder | binding result [1] | also measured
1 | B1 | binds | 
2 | B2 |  | binding result [2]: binds
3 | B3 | binds | 
4 | B4 | binds | 
5 | B5 |  | binding result [3]: binds
